The text below walks through data of paper PMC10031466, “The ROK kinase N-acetylglucosamine kinase uses a sequential random enzyme mechanism with successive conformational changes upon each substrate binding” (The Journal of Biological Chemistry, 2023).

Assay in all cases: PK/LD coupled enzyme kinetics (KM app)
Common to all, as to conditions: Mg2+

Substrate in data set [1]: CC(=O)N[C@@H]1[C@@H](O)[C@H](O)[C@@H](CO)O[C@@H]1O
The class given is biochemical, Vibrio vulnificus.

Substrate in data set [2]: Nc1ncnc2c1ncn2[C@@H]1O[C@H](COP(=O)(O)OP(=O)(O)OP(=O)(O)O)[C@@H](O)[C@H]1O
It is filed as biochemical, Vibrio vulnificus.

Substrate in data set [3]: Nc1ncnc2c1ncn2[C@@H]1O[C@H](COP(=O)(O)OP(=O)(O)OP(=O)(O)O)[C@@H](O)[C@H]1O
The class given is biochemical, Plesiomonas shigelloides.

B1: N-acetylglucosamine kinase (NagK) (Vibrio vulnificus CMCP6) (protein)
chain: MYYGFDVGGTKIEFGAFNEKLERVATERVPTPTDDYPLLLETIAGLVAKYDQEFACEGKIGLGLPGMEDADDATVLTVNVPAAKGKPLRADLEAKIGRSVKIENDANCFALSEAWDEELQDAPSVMGLILGTGFGGGLIYEGKVFSGRNNVAGELGHMRLPLDAWFHLGDNAPLLGCGCGKKGCLDSYLSGRGFELLYAHYYGEEKKAIDIIKANAAGDEKAAEHVERFMELLAICFGNIFTANDPHVVALGGGLSNFELIYEEMPKRVPKYLLSVAKCPKIIKAKHGDSGGVRGAAFLNIKG
Turning to B1, the values for the Km in data set [1] and in data set [2] were 210 ± 60 µM and 41 ± 9 µM, respectively.

B2: N-acetylglucosamine kinase (PsNagK) (Plesiomonas shigelloides 302-73) (protein)
chain: MYYGFDIGGTKIEFGAFDADLVRVARERVATPTESYAAFLDAIVTLVNNADAEFGVKGTVGIGIPGIADVETGKLLTSNIPAAMGHTLQRDLEERLQRPVKIENDANCFALSEAWDEDLRGEPSVLGLILGTGVGGGLIFNGKVHSGRANIAGEIGHTRLPYDALKLLGMENAPIFPCGCKNSGCIDNYLSGRGFEQLYDHYFSEKLSAPEIIAHYEQGERRAVQHVERFMELLAICLANIFTCLDPHVVVLGGGLSNFELIYQELPKRLPAHLLHVAKLPKIIKARHGDAGGVRGAAFLNLA
notes: His-tagged protein
With B2, the Km (as a rule, the substrate concentration at which the rate is half of its maximum) in data set [3] is 290 ± 20 µM.
